Source: patent CN114106164A (HANGZHOU PINK BIOTECHNOLOGY LTD COMPANY, dated 2022)

Legend:
[1] = target: T1, SARS-CoV-2-RBD蛋白 (重组6X His标记的RBD蛋白) (SARS-CoV-2, UniProt P0DTC2 319-541); experiment: indirect ELISA, purified antibody, antigen coated 3ug/ml
[2] = target: T1, SARS-CoV-2-RBD蛋白 (重组6X His标记的RBD蛋白); experiment: indirect ELISA, ascites, antigen coated 3ug/ml
[3] = target: T2, SARS-CoV Spike/RBD Protein(RBD,His Tag)，货号40150-V08B2 (SARS-CoV, UniProt P59594 306-527); experiment: ELISA, cross-reactivity test
T2 construct: domain: RBD

[4] = target: T3, MERS-CoV Spike/RBD Protein fragment(RBD,aa 367-606,His Tag)，货号40071-V08B1 (MERS-CoV, UniProt K9N5Q8 367-606); experiment: ELISA, cross-reactivity test
T3 construct: range 367-606; Bought reagent

B1: A2-2 (antibody, V domains shown)
VH: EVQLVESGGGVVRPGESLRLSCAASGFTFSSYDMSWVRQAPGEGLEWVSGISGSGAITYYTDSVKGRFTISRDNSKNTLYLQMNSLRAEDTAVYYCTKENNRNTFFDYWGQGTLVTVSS
VL: EIVLTQSPGTLSLSPGERATLSCRASQTVRSDLAWYQQKPGQAPRLLIYGASTRATDISDRFSGSGSGTEFTLTISSLQSEDFAVYYCQQYYEWPPHSDSFGGGTKVEIK
- ELISA OD at 1.28ng/ml [1]: 0.115
- ELISA OD at 6.4ng/ml [1]: 0.229
- ELISA OD at 32ng/ml [1]: 0.447
- ELISA OD at 160ng/ml [1]: 0.689
- ELISA OD at 800ng/ml [1]: 1.27
- ELISA OD at 4ug/ml [1]: 1.62
- ELISA OD at 20ug/ml [1]: 1.72
- ELISA OD at 稀释倍数 100 [2]: 1.53
- ELISA OD at 稀释倍数 500 [2]: 1.49
- ELISA OD at 稀释倍数 2500 [2]: 1.46
- ELISA OD at 稀释倍数 12500 [2]: 1.06
- ELISA OD at 稀释倍数 62500 [2]: 0.508
- ELISA OD at 稀释倍数 312500 [2]: 0.155
- ELISA OD at 稀释倍数 1562500 [2]: 0.077

B2: B1-2 (antibody, V domains shown)
VH: QVQLVESGGGFVQPGGSLRLSCAVSGGTFSTYGMGWFRQAPGKEREIVAAIRRSGSTYYADSVRGRFTISRDNAKNSVLLQMNSLKPEDTAVYYCAARRAGREYEYWGQGTQVTVSS
- ELISA OD at 1.28ng/ml [1]: 0.073
- ELISA OD at 6.4ng/ml [1]: 0.085
- ELISA OD at 32ng/ml [1]: 0.127
- ELISA OD at 160ng/ml [1]: 0.26
- ELISA OD at 800ng/ml [1]: 0.647
- ELISA OD at 4ug/ml [1]: 1.49
- ELISA OD at 20ug/ml [1]: 2.04
- ELISA OD at 稀释倍数 100 [2]: 1.85
- ELISA OD at 稀释倍数 500 [2]: 1.61
- ELISA OD at 稀释倍数 2500 [2]: 1
- ELISA OD at 稀释倍数 12500 [2]: 0.297
- ELISA OD at 稀释倍数 62500 [2]: 0.118
- ELISA OD at 稀释倍数 312500 [2]: 0.091
- ELISA OD at 稀释倍数 1562500 [2]: 0.081

B3: A2-4 (antibody, V domains shown)
VH: EVKLMESGGGLVQPGGSLKLSCAASGFDFSRYWMSWVRQAPGEGLEWIGEINPDSSTISYTPSLKDKFIISRDNAKNTLYLQMSKVRSEDTALYYCARRGLLLLTMDYWGQGTSVTVSS
VL: DIVMTQSPKSLSMSVGERVTLSCKASENVDTYVSWYQQKPEQSPKLLIYGASNRYTGVPDRFTGSGSATYFTLTISSVQAEDLADYHCGQTYSYPFTFGSGTKLEIK
- ELISA OD at 1.28ng/ml [1]: 0.106
- ELISA OD at 6.4ng/ml [1]: 0.126
- ELISA OD at 32ng/ml [1]: 0.149
- ELISA OD at 160ng/ml [1]: 0.279
- ELISA OD at 800ng/ml [1]: 0.584
- ELISA OD at 4ug/ml [1]: 1.33
- ELISA OD at 20ug/ml [1]: 1.95
- ELISA OD at 稀释倍数 100 [2]: 1.39
- ELISA OD at 稀释倍数 500 [2]: 1.36
- ELISA OD at 稀释倍数 2500 [2]: 1.43
- ELISA OD at 稀释倍数 12500 [2]: 0.84
- ELISA OD at 稀释倍数 62500 [2]: 0.373
- ELISA OD at 稀释倍数 312500 [2]: 0.121
- ELISA OD at 稀释倍数 1562500 [2]: 0.072

B4: B1-1 (antibody, V domains shown)
VH: QVQLVESGGGLVQPGGSLRLSCAASGFTFDDYAMSWVRQAPGKGLEWVSNIYSYISTTHYADSVKGRFTISTDNAKNTLYLQMNSLKPEDTAVYYCAARRLDTTDYKYWGQGTQVTVSS
- ELISA OD at 1.28ng/ml [1]: 0.072
- ELISA OD at 6.4ng/ml [1]: 0.088
- ELISA OD at 32ng/ml [1]: 0.154
- ELISA OD at 160ng/ml [1]: 0.38
- ELISA OD at 800ng/ml [1]: 0.929
- ELISA OD at 4ug/ml [1]: 1.19
- ELISA OD at 20ug/ml [1]: 1.35
- ELISA OD at 稀释倍数 100 [2]: 1.43
- ELISA OD at 稀释倍数 500 [2]: 1.31
- ELISA OD at 稀释倍数 2500 [2]: 1.4
- ELISA OD at 稀释倍数 12500 [2]: 1.26
- ELISA OD at 稀释倍数 62500 [2]: 0.545
- ELISA OD at 稀释倍数 312500 [2]: 0.19
- ELISA OD at 稀释倍数 1562500 [2]: 0.084

B5: Mouse anti-SARS-COV-2 Mab1(RBD-Ab) (antibody, V domains shown)
VH: VKLQESGAELVRPGTSVKVSCKASGYAFTNYLIEWVKQRPGQGLEWIGVINPGSGGTNYNEKFKGKATLTADKSSSTAYMQLSSLTSDDSAVYFCARGRADYWGQGTSVTVSS
VL: DILMTQSPSSMSVSLGDTVSITCHASQGFSSNIGWLQQKPGKSFKGLIYHGTNLEDGVPSRFSGSGSGADYSLTISSLESEDFADYYCVQYAQFPYTFGGGTKLEIK
notes: also called B1-5; B1-5号抗体
- binding result [3]: no binding
- binding result [4]: no binding
